Molecular target: RSV A/B株的融合蛋白的融合前和融合后构象
Assay: ELISA, F protein coated 50 ng/well, anti-human IgG-Fc-HRP

B1: RSFP2B6抗体 (antibody, V domains shown)
VH: QVQLVQSGGALAQPGRSLRLSCTTSGFTFGDYAVNWVRQAPGKGLEWVGIVRTEPYGGTTEYSASVKGRFIISRDDSKGIAYLQMNSLKTEDTGVYYCSQPILNVDVWGQGTTVTVSS
VL: NFMLTQPHSVSESPGKTVTISCTRSSGSFGSDYVQWYQQRPGSAPNTVIYENNQRPSGVPDRFSGSIDSSSNSASLTISGLKTEDEADYYCQSYDDNTPWVFGGGTELTVL
Question: With B1 as the binder, how does the EC50 read?
Answer: 0.292 to 0.603 µg/mL

Reference: CN118307667A
